Assay results from patent publication US20210269525A1 (BIOCYTOGEN PHARMACEUTICALS BEIJING, published 2021).
Like-named read-outs stand apart in the source and are kept apart here.

T1: Cynomolgus CD3 epsilon Protein, His Tag (Acrobiosystems, Cat #CDE-05226) (cynomolgus (Macaca fascicularis), UniProt Q95LI5 22-117)
T1 construct: also called monkey CD3e; not shown: His tag
T1 sequence: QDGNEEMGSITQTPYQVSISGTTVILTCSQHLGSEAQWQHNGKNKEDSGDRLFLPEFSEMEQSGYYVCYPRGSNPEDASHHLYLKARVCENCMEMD

T2: Histidine-tagged rCD3e protein (rhesus macaque, Macaca mulatta) (rhesus macaque (Macaca mulatta), UniProt Q95LI5 22-117 (cynomolgus entry), limits assumed)
T2 construct: also called rCD3e-His; rmCD3e; not shown: His tag
T2 chain: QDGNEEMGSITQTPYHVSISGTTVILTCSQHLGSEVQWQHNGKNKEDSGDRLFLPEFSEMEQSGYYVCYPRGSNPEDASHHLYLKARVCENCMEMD


Columns and labels:
[1] = molecular target: T3, human CD3e (T-cell surface glycoprotein CD3 epsilon chain) (human, UniProt P07766 23-207); test: cell-based or functional assay
[2] = molecular target: T3, human CD3e (T-cell surface glycoprotein …); test: cell-based or functional assay; remark: listed apart in the source
[3] = molecular target: T3, human CD3e (T-cell surface glycoprotein …); test: cell-based or functional assay; remark: listed apart in the source
[4] = molecular target: T4, Histidine-tagged human CD3e protein (human, UniProt P07766 23-126); test: SPR (Biacore), human CD3e
T4 construct: also called hCD3e-His; not shown: His tag

[5] = molecular target: T1, Cynomolgus CD3 epsilon Protein, His Tag …; test: SPR (Biacore), cynomolgus CD3e His tag
Protocol: The binding affinity of the anti-hCD3e antibodies with monkey CD3e (Cynomolgus CD3 epsilon Protein (SEQ ID NO: 39 AA Gln 22-Asp 117), His Tag, Acrobiosystems, Cat #CDE-05226) were also measured using surface plasmon resonance (SPR) using Biacore (Biacore, INC, Piscataway N.J.) by the methods as described in the examples.

[6] = molecular target: T3, human CD3e (T-cell surface glycoprotein …); test: flow cytometry, human PBMC, antibody 1 µg/mL, anti-human IgG Fc-Alexa Fluor647 (1:500), anti-hTcRβ-PerCP (1:30)
[7] = molecular target: T3, human CD3e (T-cell surface glycoprotein …); test: flow cytometry, human PBMC, antibody 10 µg/mL, anti-human IgG Fc-Alexa Fluor647 (1:500), anti-hTcRβ-PerCP (1:30)
[8] = molecular target: T3, human CD3e (T-cell surface glycoprotein …); test: flow cytometry, human PBMC, antibody 0.1 µg/mL, anti-human IgG Fc-Alexa Fluor647 (1:500), anti-hTcRβ-PerCP (1:30)
[9] = molecular target: T5, monkey CD3e (Macaca fascicularis) on PBMC (Macaca fascicularis, UniProt Q95LI5 22-198); test: flow cytometry, Macaca fascicularis PBMC, antibody concentration not given, anti-human IgG Fc-Alexa Fluor647 (1:500), anti-hTcRβ-PerCP (1:30)
T5 construct: Target on PBMC from Macaca fascicularis; also called mfCD3e; monkey PBMC
Procedure, shortened: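 Cynomolgus PBMC incubated with anti-hCD3 antibodies 15 min at 4° C, washed in PBS. Bound antibody detected with anti-human IgG Fc-Alexa Fluor647 (1:500) plus anti-hTcRβ-PerCP (1:30), 15 min at 4° C, then washed and analysed by flow cytometry.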

[10] = molecular target: T4, Histidine-tagged human CD3e protein; test: SPR (Biacore), human CD3e; same numbers as Table 7
[11] = molecular target: T4, Histidine-tagged human CD3e protein; test: SPR, Biacore T200, antibody on Protein A chip, hCD3e-His injected
Protocol: (§1) The binding affinity of the anti-hCD3e antibodies were measured using surface plasmon resonance (SPR) using Biacore (Biacore, INC, Piscataway N.J.) T200 biosensor equipped with pre-immobilized Protein A sensor chips (Protein A (Lot:10260138)-5).
Anti-hCD3e antibodies were collected from CHO-S cells. The antibodies (1:20) were injected into Biacore T200 biosensor at 10 μL/min for 35 seconds to achieve to a desired protein density. Histidine-tagged human CD3e proteins (hCD3e-His) with different concentrations (100 nM 0.390625 nM) were then injected to the system at 30 μL/min for 150 seconds. Dissociation was monitored for 600 seconds. The chip was regenerated after the last injection of each titration with Glycine (pH 2.0, 30 μL/min for 5 seconds).

[12] = molecular target: T2, Histidine-tagged rCD3e protein (rhesus …); test: SPR, Biacore T200, antibody on Protein A chip, rCD3e-His injected
Protocol: as §1
Experiments were also performed to test the binding affinities with rCD3e (rhesus macaque, or Macaca mulatta). Anti-hCD3e antibodies (1:20) were injected into Biacore T200 biosensor at 10 μL/min for 30 seconds to achieve to a desired protein density. Histidine-tagged rCD3e proteins (rCD3e-His) with different concentrations (100 nM 0.390625 nM) were then injected to the system at 30 μL/min for 150 seconds. Dissociation was monitored for 450 seconds. The chip was regenerated after the last injection of each titration with Glycine (pH 2.0, 30 μL/min for 12 seconds).

[13] = molecular target: T4, Histidine-tagged human CD3e protein; test: SPR (Biacore), human CD3e; same numbers as Table 7; remark: listed apart in the source

T5 sequence (Q95LI5 22-198 limits assumed): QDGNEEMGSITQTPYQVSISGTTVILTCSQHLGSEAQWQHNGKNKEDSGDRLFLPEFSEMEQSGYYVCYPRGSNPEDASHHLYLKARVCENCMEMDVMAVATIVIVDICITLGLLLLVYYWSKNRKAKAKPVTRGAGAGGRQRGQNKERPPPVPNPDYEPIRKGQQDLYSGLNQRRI

Row | Binder | EC50, luciferase of Jurkat-Luc-NFAT cells with CHO-FcγRIIB cells [1] | Kd [5] | koff [5] | kon [5] | Kd [11] | koff [11] | kon [11] | Kd [12] | koff [12] | kon [12] | other results
1 | 25-10A4 (antibody, V domains shown) VH: QVQLQQSGPELVKPGASVRISCKASGYTFTSYYIHWVKQRPGQGLEFIGWIYPGNVNAKYNEKFKGKATLTTDKSSTTAYMQLSSLTSEDSAVYFCAIKGGNYDWGQGTLVTVSA VL: not shown | 0.421 µg/mL |  |  |  |  |  |  |  |  |  | 
2 | 30-1B1 (antibody, V domains shown) VH: QVQLQQPGSELVRPGASVKLSCKASGYTFTSYWMHWVKQRHGQGLEWIGNIYPDSGTTNYGEKFKTKGTLTVDTSSSTAYMHLSSLTSEDSAVYYCTRDTSGQYYFDYWGQGTTLTVSS VL: DIVMSQSPSSLAVSAGEKVTMSCKSSQSLLNSRTRKNYLAWYQHKPGQSPKLLIYWASTRESGVPDRFTGSGSGTDFTLTISSVQAEDLAVYYCVQSFSLRAFGGGTKLEIK | 2.98 µg/mL |  |  |  |  |  |  |  |  |  | 
3 | Teplizumab (antibody, V domains shown) VH: QVQLVQSGGGVVQPGRSLRLSCKASGYTFTRYTMHWVRQAPGKGLEWIGYINPSRGYTNYNQKVKDRFTISRDNSKNTAFLQMDSLRPEDTGVYFCARYYDDHYCLDYWGQGTPVTVSS VL: DIQMTQSPSSLSASVGDRVTITCSASSSVSYMNWYQQTPGKAPKRWIYDTSKLASGVPSRFSGSGSGTDYTFTISSLQPEDIATYYCQQWSSNPFTFGQGTKLQITR |  |  |  |  |  |  |  |  |  |  | EC50, luciferase of Jurkat-Luc-NFAT cells; purified antibody [2]: 0.149 µg/mL; EC50, luciferase of Jurkat-Luc-NFAT cells; purified antibody [3]: 0.449 µg/mL
4 | 1B1-H1K2-IgG1-LALA (antibody, V domains shown, Humanized; human IgG1 with LALA mutations; also called H1K2 (humanized 1B1)) VH: QVQLVQSGAEVKKPGASVKVSCKASGYTFTSYWMHWVRQAPGQGLEWIGNIYPDSGTTNYGEKFKTRVTLTVDTSTSTAYMELSSLRSEDTAVYYCTRDTSGQYYFDYWGQGTLVTVSS VL: DIVMTQSPDSLAVSAGERVTMNCKSSQSLLNSRTRKNYLAWYQHKPGQSPKLLIYWASTRESGVPDRFSGSGSGTDFTLTISSLQAEDVAVYYCVQSFSLRAFGGGTKVEIK |  | 7.59 nM | 0.00072 s⁻¹ | 94900 M⁻¹ s⁻¹ |  |  |  |  |  |  | EC50, luciferase of Jurkat-Luc-NFAT cells; antibody from supernatant [3]: > 3.08 µg/mL; Kd [4]: 1.2 nM; koff [4]: 0.000669 s⁻¹; kon [4]: 558000 M⁻¹ s⁻¹; upper left quadrant, percent of cells AF647+ / hTcRβ-PerCP- [6]: 9.83%; upper right quadrant, percent of cells AF647+ / hTcRβ-PerCP+ [6]: 62.4%; upper left quadrant, percent of cells AF647+ / hTcRβ-PerCP- [7]: 9.94%; upper right quadrant, percent of cells AF647+ / hTcRβ-PerCP+ [7]: 63.5%; upper left quadrant, percent of cells AF647+ / hTcRβ-PerCP- [8]: 11.6%; upper right quadrant, percent of cells AF647+ / hTcRβ-PerCP+ [8]: 58.1%; upper left quadrant, percent of cells AF647+ / hTcRβ-PerCP- [9]: 80.5%; upper right quadrant, percent of cells AF647+ / hTcRβ-PerCP+ [9]: 14.9%
5 | C3E-25-10A4-mHvKv-IgG1-LALA (antibody, V domains shown, Chimeric) VH: QVQLQQSGPELVKPGASVRISCKASGYTFTSYYIHWVKQRPGQGLEFIGWIYPGNVNAKYNEKFKGKATLTTDKSSTTAYMQLSSLTSEDSAVYFCAIKGGNYDWGQGTLVTVSA VL: not shown |  | 9.05 nM | 0.000453 s⁻¹ | 50000 M⁻¹ s⁻¹ | 5.37 nM | 0.000384 s⁻¹ | 71500 M⁻¹ s⁻¹ | 2.05 nM | 0.000251 s⁻¹ | 123000 M⁻¹ s⁻¹ | Kd [10]: 5.37 nM; koff [10]: 0.000384 s⁻¹; kon [10]: 71500 M⁻¹ s⁻¹
6 | C3E-30-1B1-mHvKv-IgG1-LALA (antibody, V domains shown, Chimeric) VH: QVQLQQPGSELVRPGASVKLSCKASGYTFTSYWMHWVKQRHGQGLEWIGNIYPDSGTTNYGEKFKTKGTLTVDTSSSTAYMHLSSLTSEDSAVYYCTRDTSGQYYFDYWGQGTTLTVSS VL: DIVMSQSPSSLAVSAGEKVTMSCKSSQSLLNSRTRKNYLAWYQHKPGQSPKLLIYWASTRESGVPDRFTGSGSGTDFTLTISSVQAEDLAVYYCVQSFSLRAFGGGTKLEIK |  | 4.54 nM | 0.00049 s⁻¹ | 108000 M⁻¹ s⁻¹ | 0.988 nM | 0.000509 s⁻¹ | 516000 M⁻¹ s⁻¹ | 0.752 nM | 0.00039 s⁻¹ | 518000 M⁻¹ s⁻¹ | Kd [13]: 0.988 nM; koff [13]: 0.000509 s⁻¹; kon [13]: 516000 M⁻¹ s⁻¹
